Reference: publication PMC3139646, “Synthesis and Investigation of a Radioiodinated F3 Peptide Analog as a SPECT Tumor Imaging Radioligand” (PLoS ONE, 2011)

How the values were obtained:
[1] = system: MDA-MB-435 tumor xenografts; assay type: in vivo, mouse
Procedure: At 4 h, kidney and bladder were not visualized likely due to voiding of urine. It is possible that the presence of urine radioactivity in kidney and bladder, at the early time intervals, could have contributed to an overestimation of tissue radioactivity uptake in these organs in the images. […] Intestinal radioactivity was clearly apparent in the 4 h images, which is most likely due to a shift in radioactivity clearance from the renal to hepatobiliary excretion pathway at later time intervals.
Mouse SPECT/CT imaging studies were performed on a GMI Tri-Modality CT/PET/SPECT small animal scanner (Gamma-Medica Ideas, Inc., Northridge, CA). SPECT images were acquired using a dual-head, high-resolution, low-energy parallel-hole collimator. CT imaging of animals was performed for anatomical co-registration and CT fusion of SPECT images were performed using AMIRA (version 3.1) software (Visage Imaging, San Diego, CA USA). Imaging was performed when tumors reached a 60–100 mm^3 average volume.

[2] = system: tumor-bearing athymic nude mice; conditions: mouse, in vivo, iv
Description: The remaining radioactivity consisted primarily of two hydrophobic radiometabolites representing 47% and 18% of the total plasma radioactivity. […] In contrast, the parent radioligand accounted for 42% of the total radioactivity present in mouse urine samples at this time interval. The remaining radioactivity consisted of three major hydrophobic radiometabolites representing 28%, 6.8% and 10% of the total. […] This is possibly due to its high in vivo tumor affinity which results in its rapid sequestration and retention within the tumor cells in a nucleolin dependent manner.
Blood and urine samples were collected, centrifuged at 12,000 rpm for 15 min, and the supernatants transferred to a fresh centrifuge tube and the centrifugation repeated. The supernatants were treated with CH3CN and centrifuged again to precipitate proteins and the clear supernatants analyzed by radio-HPLC (Method I).

[3] = system: MDA-MB-435 tumor-bearing athymic nude mice; conditions: mouse, in vivo, iv
Procedure: Kidney uptake of radioactivity (5.68%ID/g and 10.8% ID/g at 5 and 30 min respectively post-injection) was the highest among all sampled tissues confirming that renal elimination is the major excretory pathway for the radioligand (Table S1). In tumors, radioactivity levels peaked at 30 min post-injection (1.05% ID/g).
(A) Tissue distribution at 60 min post injection and reported as percent injected dose per gram of tissue (%ID/g). (B) and (C) represent the ratio of radioactivity in tumor to blood and tumor to muscle respectively at various time intervals. All the data are computed as mean +/− SEM.
Female CD-1 nude mice (nu/nu, 25–28 g) bearing MDA-MB-435 mammary fat pad tumor xenografts on opposite sides were utilized for the biodistribution studies. Four animals (N = 4) were used per time point. […] Selected tissues (blood, heart, liver, lung, spleen, adrenals, tumor, kidney, muscle, whole brain and thyroid) were harvested and tissue samples were assayed for activity using a Gamma Counter. Tissue uptake was computed as % injected dose/gram (%ID/g).
All the data are computed as mean +/− SEM. (DOCX) Click here for additional data file.

[4] = Storage stability of formulated radioligand (radio-HPLC); assay type: physicochemical; conditions: formulated in PBS:EtOH [95:5], stored at 5°C, radio-HPLC analysis
Procedure: The 3-(tri-n-butylstannyl)[…] analog 8 was obtained from the N-succinimidyl-3-(tri-n-butylstannyl)benzoate analog 7 using the approach described for the synthesis of 5 (Scheme A). […] The radioiodinated product was well resolved from the tri-n-butylstannyl starting material (Rt>25 min) under the HPLC conditions. […] The radioligand which was formulated in PBS∶EtOH [95∶5] was stable for at least 1 week when stored at 5°C (<2% radiolytic decomposition by radio-HPLC analysis).

N-(2-{3-[^125I]Iodobenzoyl}aminoethyl)maleimide-F3Cys peptide [[^125I]IBMF3]
Tumor uptake in SPECT images, early ([1]; 15 min post-injection, i.v. 570–610 µCi, MDA-MB-435 xenografts): distinct uptake of radioactivity in tumor as early as 15 min post-injection | Tumor visualization in SPECT images at 4 h ([1]; 4 h post-injection, i.v. 570–610 µCi, MDA-MB-435 xenografts): visualized in the SPECT images at 4 h although at lower levels | Tumor radioactivity in SPECT images at later time intervals ([1]; >4 h post-injection, i.v., MDA-MB-435 xenografts): substantial clearance at later time intervals | Thyroid uptake in SPECT images (in vivo deiodination) ([1]; mouse, in vivo, iv): Moderate radioactivity uptake was seen in thyroid | Hydrophobic radiometabolite (first named), share of total plasma radioactivity [2]: 47% | Hydrophobic radiometabolite (first named), share of total urine radioactivity [2]: 28% | Hydrophobic radiometabolite (second named), share of total plasma radioactivity [2]: 18% | Hydrophobic radiometabolite (second named), share of total urine radioactivity [2]: 6.8% | Hydrophobic radiometabolite (third named), share of total urine radioactivity [2]: 10% | Parent radioligand, share of total urine radioactivity [2]: 42% | Extraction into brain [3]: 0.03 %ID/g | Radioactivity clearance from blood [3]: > 60% | Tumor-to-blood ratio [3]: 2.1 | Tumor-to-muscle ratio [3]: 4.3 | Radiolytic decomposition on storage ([4]; 1 week): < 2% | Time stable on storage [4]: at least 1 week
